Measurements: article PMC8982573 (EMBO Reports, 2022)

Molecular target: SARS-CoV-2 spike receptor-binding domain fused to Venus YFP (RBD-vYFP) (SARS-CoV-2, UniProt P0DTC2 330-526, chemically biotinylated using NHS-Biotin)
Assay: grating-coupled interferometry (GCI)
Details: both partners purified

B1: Sybody Sb#15 (VHH)
VHH: QVQLVESGGGLVQAGGSLRLSCAASGFPVKNFEMEWYRKAPGKEREWVAAIQSGGVETYYADSVKGRFTISRDNAKNTVYLQMNSLKPEDTAVYYCFVYVGRSYIGQGTQVTVS
notes: also called Sb#y15; source: E. coli MC1061, periplasm, purified (Ni-NTA, SEC)
Q: How did the Kd turn out when B1 was run?
A: 14.4 nM
